Source: paper PMC10646970

Biological target: PD-L1 (programmed cell death ligand 1), N-terminal domain

Substance: wild-type (natural) PD-1 (from UniProt Q15116 25-170) (natural protein)
- increase in IFN-gamma production in MDA-MB-231/PBMC coculture, 10 ug/mL protein, 48 h, ELISA; PD-L1 is that on the tumour cells; pair blocked: PD-1 on PBMCs / PD-L1: 92%
